Read-outs that look alike come from different tables or passages of the source.
How the values were obtained:
Assay in all cases: SPR (Biacore T200); KD of H237-mIgG1/MRAL-k0 / KD of variant
[1] = target: T1, mouse FcγRII extracellular domain, C-terminal His tag (mouse, UniProt P08101 30-210)
T1 construct: Whole entry named; also called mFcγRII; mFcgRII
T1 sequence: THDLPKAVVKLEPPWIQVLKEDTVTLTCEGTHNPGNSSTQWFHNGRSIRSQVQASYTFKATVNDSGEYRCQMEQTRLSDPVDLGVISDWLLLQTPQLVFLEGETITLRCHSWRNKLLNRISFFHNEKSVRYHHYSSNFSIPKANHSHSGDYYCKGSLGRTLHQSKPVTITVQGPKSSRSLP

[2] = target: T2, mouse FcγRIII extracellular domain, C-terminal His tag (mouse, UniProt P08508 31-215)
T2 construct: Whole entry named; also called mFcγRIII; mFcgRIII
T2 chain: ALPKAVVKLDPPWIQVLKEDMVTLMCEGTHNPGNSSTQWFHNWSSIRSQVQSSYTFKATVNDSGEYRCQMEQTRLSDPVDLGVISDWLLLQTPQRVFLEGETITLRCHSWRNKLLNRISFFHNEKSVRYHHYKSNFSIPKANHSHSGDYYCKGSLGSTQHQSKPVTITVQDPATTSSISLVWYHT

[3] = target: T1, mouse FcγRII extracellular domain, …; remark: listed apart in the source
Excerpt: (§1) The antibody H chain variable region used was the variable region H237 (SEQ ID NO: 1) of the H chain VH3-IgG1 of the anti-IL-6 receptor antibody Fv4-IgG1 described in WO2009/125825. The antibody L chain commonly used was the L chain MRAL-k0 (SEQ ID NO: 2) of the anti-IL-6 receptor antibody tocilizumab. The aforementioned 11 variants were used as templates to introduce the alteration. These variants were expressed and purified by the method of Reference Example 1 and evaluated for their binding to mFcγRII and mFcγRIII by the method of Reference Example 2 using Biacore T200.
(§2) Each altered antibody was analyzed for its interaction with each Fcγ receptor prepared above using Biacore T100 (GE Healthcare Japan Corp.), Biacore T200 (GE Healthcare Japan Corp.), Biacore A100, or Biacore 4000. The running buffer used was HBS-EP+ (GE Healthcare Japan Corp.). The assay temperature was set to 25° C. The sensor chips used were chips prepared by immobilizing Protein L (ACTIGEN or BioVision) onto Series S Sensor Chip CM5 (GE Healthcare Japan Corp.) or Series S Sensor Chip CM4 (GE Healthcare Japan Corp.) by the amine coupling method.
(§3) In order to calculate the KD value of each altered antibody for FcγR, kinetic analysis was conducted according to the following method: first, the antibody of interest was captured onto any of these chips and allowed to interact with mFcγR diluted with a running buffer. For the obtained sensorgram, the assay results were globally fit into the 1:1 Langmuir binding model using Biacore Evaluation Software to calculate an association rate constant ka (L/mol/s) and a dissociation rate constant kd (1/s). From these values, the dissociation constant KD (mol/L) was calculated.

[4] = target: T2, mouse FcγRIII extracellular domain, …
Excerpt: as §1, §2, §3

Row | Binder | relative mFcγRII-binding activity (mIgG1 = 1) [1] | relative mFcγRIII-binding activity (mIgG1 = 1) [2] | relative mFcγRII-binding activity (mIgG1 = 1) [3] | relative mFcγRIII-binding activity (mIgG1 = 1) [4]
1 | H237-MB147/MRAL-k0 (antibody, mouse IgG1, kappa, copies: 2 + 2) heavy: QVQLQESGPGLVKPSETLSLTCAVSGHSISHDHAWSWVRQPPGEGLEWIGFISYSGITNYNPSLQGRVTISRDNSKNTLYLQMNSLRAEDTAVYYCARSLARTTAMDYWGEGTLVTVSSAKTTPPSVYPLAPGSAAQTNSMVTLGCLVKGYFPEPVTVTWNSGSLSSGVHTFPAVLQSDLYTLSSSVTVPSSTWPSETVTCNVAHPASSTKVDKKIVPRDCGCKPCICTVPEVSSVEIFPPKPKDVLTITLTPKVTCVVVDISKDDPEVQFSWFVDDVEVHTAQTQPREEQFNSTFRSVSELPIMHQDWLNGKEFKCRVNSAAFPAPIEKTISKTKGRPKAPQVYTIPPPKEQMAKDKVSLTCMITDFFPEDITVEWQWNGQPAENYKNTQPIMDTDGSYFVYSKLNVQKSNWEAGNTFTCSVLHEGLHNHHTEKSLSHSPGK light: not shown | 0.95 fold | 0.36 fold |  | 
2 | H237-MB723/MRAL-k0 (antibody, mouse IgG1, kappa, copies: 2 + 2) heavy: QVQLQESGPGLVKPSETLSLTCAVSGHSISHDHAWSWVRQPPGEGLEWIGFISYSGITNYNPSLQGRVTISRDNSKNTLYLQMNSLRAEDTAVYYCARSLARTTAMDYWGEGTLVTVSSAKTTPPSVYPLAPGSAAQTNSMVTLGCLVKGYFPEPVTVTWNSGSLSSGVHTFPAVLQSDLYTLSSSVTVPSSTWPSETVTCNVAHPASSTKVDKKIVPRDCGCKPCICEDYEEEDVFIFPPKPKDVLTITLTPKVTCVVVDISKDDPEVQFSWFVDDVEVHTAQTQPREEQFNSTFRSVSELPIMHQDWLNGKEFKCRVNSAAFPAPIEKTISKTKGRPKAPQVYTIPPPKEQMAKDKVSLTCMITDFFPEDITVEWQWNGQPAENYKNTQPIMDTDGSYFVYSKLNVQKSNWEAGNTFTCSVLHEGLHNHHTEKSLSHSPGK light: not shown |  |  | 14.1 fold | 0.72 fold
3 | H237-MB159/MRAL-k0 (antibody, mouse IgG1, kappa, copies: 2 + 2) heavy: QVQLQESGPGLVKPSETLSLTCAVSGHSISHDHAWSWVRQPPGEGLEWIGFISYSGITNYNPSLQGRVTISRDNSKNTLYLQMNSLRAEDTAVYYCARSLARTTAMDYWGEGTLVTVSSAKTTPPSVYPLAPGSAAQTNSMVTLGCLVKGYFPEPVTVTWNSGSLSSGVHTFPAVLQSDLYTLSSSVTVPSSTWPSETVTCNVAHPASSTKVDKKIVPRDCGCKPCICTVPEVSSVTIFPPKPKDVLTITLTPKVTCVVVDISKDDPEVQFSWFVDDVEVHTAQTQPREEQFNSTFRSVSELPIMHQDWLNGKEFKCRVNSAAFPAPIEKTISKTKGRPKAPQVYTIPPPKEQMAKDKVSLTCMITDFFPEDITVEWQWNGQPAENYKNTQPIMDTDGSYFVYSKLNVQKSNWEAGNTFTCSVLHEGLHNHHTEKSLSHSPGK light: not shown | 0.37 fold | 0.28 fold |  | 
4 | H237-MB724/MRAL-k0 (antibody, mouse IgG1, kappa, copies: 2 + 2) heavy: QVQLQESGPGLVKPSETLSLTCAVSGHSISHDHAWSWVRQPPGEGLEWIGFISYSGITNYNPSLQGRVTISRDNSKNTLYLQMNSLRAEDTAVYYCARSLARTTAMDYWGEGTLVTVSSAKTTPPSVYPLAPGSAAQTNSMVTLGCLVKGYFPEPVTVTWNSGSLSSGVHTFPAVLQSDLYTLSSSVTVPSSTWPSETVTCNVAHPASSTKVDKKIVPRDCGCKPCICENYEEEDVFIFPPKPKDVLTITLTPKVTCVVVDISKDDPEVQFSWFVDDVEVHTAQTQPREEQFNSTFRSVSELPIMHQDWLNGKEFKCRVNSAAFPAPIEKTISKTKGRPKAPQVYTIPPPKEQMAKDKVSLTCMITDFFPEDITVEWQWNGQPAENYKNTQPIMDTDGSYFVYSKLNVQKSNWEAGNTFTCSVLHEGLHNHHTEKSLSHSPGK light: not shown |  |  | 20.8 fold | 1.19 fold
5 | H237-MB725/MRAL-k0 (antibody, mouse IgG1, kappa, copies: 2 + 2) heavy: QVQLQESGPGLVKPSETLSLTCAVSGHSISHDHAWSWVRQPPGEGLEWIGFISYSGITNYNPSLQGRVTISRDNSKNTLYLQMNSLRAEDTAVYYCARSLARTTAMDYWGEGTLVTVSSAKTTPPSVYPLAPGSAAQTNSMVTLGCLVKGYFPEPVTVTWNSGSLSSGVHTFPAVLQSDLYTLSSSVTVPSSTWPSETVTCNVAHPASSTKVDKKIVPRDCGCKPCICETYEEEDVFIFPPKPKDVLTITLTPKVTCVVVDISKDDPEVQFSWFVDDVEVHTAQTQPREEQFNSTFRSVSELPIMHQDWLNGKEFKCRVNSAAFPAPIEKTISKTKGRPKAPQVYTIPPPKEQMAKDKVSLTCMITDFFPEDITVEWQWNGQPAENYKNTQPIMDTDGSYFVYSKLNVQKSNWEAGNTFTCSVLHEGLHNHHTEKSLSHSPGK light: not shown |  |  | 24.3 fold | 1.39 fold
6 | H237-MB258/MRAL-k0 (antibody, mouse IgG1, kappa, copies: 2 + 2) heavy: QVQLQESGPGLVKPSETLSLTCAVSGHSISHDHAWSWVRQPPGEGLEWIGFISYSGITNYNPSLQGRVTISRDNSKNTLYLQMNSLRAEDTAVYYCARSLARTTAMDYWGEGTLVTVSSAKTTPPSVYPLAPGSAAQTNSMVTLGCLVKGYFPEPVTVTWNSGSLSSGVHTFPAVLQSDLYTLSSSVTVPSSTWPSETVTCNVAHPASSTKVDKKIVPRDCGCKPCICTVPEVSSVFIFPPKPKDVLTITLTPKVTCVVVDISKDDPEVQFSWFVDDVEVHTAQTQPREEQFNHTFRSVSELPIMHQDWLNGKEFKCRVNSAAFPAPIEKTISKTKGRPKAPQVYTIPPPKEQMAKDKVSLTCMITDFFPEDITVEWQWNGQPAENYKNTQPIMDTDGSYFVYSKLNVQKSNWEAGNTFTCSVLHEGLHNHHTEKSLSHSPGK light: not shown | 0.37 fold | 0.32 fold |  | 
7 | H237-MB208/MRAL-k0 (antibody, mouse IgG1, kappa, copies: 2 + 2) heavy: QVQLQESGPGLVKPSETLSLTCAVSGHSISHDHAWSWVRQPPGEGLEWIGFISYSGITNYNPSLQGRVTISRDNSKNTLYLQMNSLRAEDTAVYYCARSLARTTAMDYWGEGTLVTVSSAKTTPPSVYPLAPGSAAQTNSMVTLGCLVKGYFPEPVTVTWNSGSLSSGVHTFPAVLQSDLYTLSSSVTVPSSTWPSETVTCNVAHPASSTKVDKKIVPRDCGCKPCICTVPEVSSVFIFPPKPKDVLTITLTPKVTCVVVDIMKDDPEVQFSWFVDDVEVHTAQTQPREEQFNSTFRSVSELPIMHQDWLNGKEFKCRVNSAAFPAPIEKTISKTKGRPKAPQVYTIPPPKEQMAKDKVSLTCMITDFFPEDITVEWQWNGQPAENYKNTQPIMDTDGSYFVYSKLNVQKSNWEAGNTFTCSVLHEGLHNHHTEKSLSHSPGK light: not shown | 0.4 fold | 0.26 fold |  | 
8 | H237-MB722/MRAL-k0 (antibody, mouse IgG1, kappa, copies: 2 + 2) heavy: QVQLQESGPGLVKPSETLSLTCAVSGHSISHDHAWSWVRQPPGEGLEWIGFISYSGITNYNPSLQGRVTISRDNSKNTLYLQMNSLRAEDTAVYYCARSLARTTAMDYWGEGTLVTVSSAKTTPPSVYPLAPGSAAQTNSMVTLGCLVKGYFPEPVTVTWNSGSLSSGVHTFPAVLQSDLYTLSSSVTVPSSTWPSETVTCNVAHPASSTKVDKKIVPRDCGCKPCICEAYEEEDVFIFPPKPKDVLTITLTPKVTCVVVDISKDDPEVQFSWFVDDVEVHTAQTQPREEQFNSTFRSVSELPIMHQDWLNGKEFKCRVNSAAFPAPIEKTISKTKGRPKAPQVYTIPPPKEQMAKDKVSLTCMITDFFPEDITVEWQWNGQPAENYKNTQPIMDTDGSYFVYSKLNVQKSNWEAGNTFTCSVLHEGLHNHHTEKSLSHSPGK light: not shown |  |  | 33.3 fold | 1.35 fold

Reference: patent US20150203577A1 (Chugai, published 2015)
